The numbers were not newly measured in article PMC3601010, “The complete N-terminal extension of heparin cofactor II is required for maximal effectiveness as a thrombin exosite 1 ligand” (BMC Biochemistry, 2013), which cites them from elsewhere.

This data set has as its target T1, thrombin (Homo sapiens, UniProt P00734).
T1 construct: purchased Enzyme Research, South Bend, IN; host or cells: HCII 1-75 probe made in house in E. coli TOP10
As to conditions: heparin, heparan sulfate, or dermatan sulfate; ref [7]-[11]. The text has this:
Heparin cofactor II (HCII) is a 66 kDa plasma protein and member of the serpin superfamily of protease inhibitors (reviewed in [3]). It regulates the key coagulation protease thrombin by trapping it in a covalently-linked denaturation-resistant complex. Thrombin-complexed HCII is cleaved at its reactive center peptide bond, while thrombin in the inhibitory complex, by analogy to enzymes in other serpin-enzyme complexes, is conformationally inactivated by active site distortions that render it incapable of completing the catalytic cycle of a proteolytic enzyme. The r ...

B1: HCII: 66 kDa plasma protein and member of the serpin superfamily of protease inhibitors (protein, UniProt P05546 20-499, looked up)
Heparin cofactor 2: GSKGPLDQLEKGGETAQSADPQWEQLNNKNLSMPLLPADFHKENTVTNDWIPEGEEDDDYLDLEKIFSEDDDYIDIVDSLSVSPTDSDVSAGNILQLFHGKSRIQRLNILNAKFAFNLYRVLKDQVNTFDNIFIAPVGISTAMGMISLGLKGETHEQVHSILHFKDFVNASSKYEITTIHNLFRKLTHRLFRRNFGYTLRSVNDLYIQKQFPILLDFKTKVREYYFAEAQIADFSDPAFISKTNNHIMKLTKGLIKDALENIDPATQMMILNCIYFKGSWVNKFPVEMTHNHNFRLNEREVVKVSMMQTKGNFLAANDQELDCDILQLEYVGGISMLIVVPHKMSGMKTLEAQLTPRVVERWQKSMTNRTREVLLPKFKLEKNYNLVESLKLMGIRMLFDKNGNMAGISDQRIAIDLFKHQGTITVNEEGTQATTVTTVGFMPLSTQVRFTVDRPFLFLIYEHRTSCLLFMGRVANPSRS
modifications: plasma-derived
B1: the “increase of thrombin inhibition rate by GAGs” value was “three to four orders of magnitude”.
